Test results reported in the NTF2 design screens of Basanta et al. (2020).

Assay: protease stability score; higher = more stable; yeast display proteolysis, trypsin and chymotrypsin;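 further: relative to predicted unfolded state with 0 unfolded-like and 1 meaning tenfold more protease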

Sequence | protease stability score
DETQELAEEIVRKMIENWLTGNEEELHKMADPHVRVHINGVDLHGREVWEKWVHDELEKIPGIRREFELKRLEIYGDYIDIDGILILTFNGRKHTHKVRIHLHIVDGKLHRLEIRNK | 1.28
SEEDRDMEHVINVLRHLMVTGDEEELTKMADPTAYSDVNGVELHGREAFSRIVKLMGVKHVEIRDFTVQGDKVDVDGETRFENHHRFSIIHLRKINGRWYIERMRLE | 0.771
DEHQKEIKEVVEMMRHAILTGDEETLERQMDPHAKIRINGVDYVGRRYLEILIRRVDHRRIHTRIRHVEIVDGRVITHLEERTVLHVGDKDIHVSHELEFVLLKIDGRWLVTEMIIQ | 1.23
SEDEHFLERFLKLFLHAYETGDEDFIKHLLDPHTRIDIHIGDKTHHLHGRDEMSKLHRKLGAKVSRHRDSNMDIQGDKATSHIHGVEYVNGREIRIDIVLIMRKVDGRWVIESMIFIFH | 1.25
DEEDKFSREAIELWIRVLETGNEHLLHKLADPHVRVVFNGKESVGMEEFVEVLREIRIHTSRDRHVRLQGDKVDVDSIIDGEVNGVRTKVETQLIATKIDGRWVNQQVNWR | 0.23
SETEHYSQKLLDLIVKAMRTGDEEMFERLLDPNTRELVDGQELHGREEWHHLWHRIDHLRIDHSEISHVNPIGEFIVVHMRVRMTLHINGKIHHYETEVIIIILKIDGRWLMHEVRFH | 0.647
DEDDERSRLFLEEMMRTLLTGDERKSHELADPRVRINVNGRHIHGRELWNRFVHEARIRITHHRIHSRDIYNGRIELDVELRGDIHIGDKDIHLDTRIILFVLKVNGRWHLEIMEIV | 1.25
DEVERHLKEIFKDLERALNTGDEDRFEHLMDPHARYDVNGVEFIGMRWFRKLVKEIRIRHVDMRLEDVRHVGDFVKMITRIHIEVDINGKNDERETRTILIMHKIDGRWEIKEVIFL | 1.38
DEEKKLMLESMKQTLDKIFTGDFDSTAEYLDPHARYIIGDKTLHGMERWKEFLDRFDHVHIHDVKLHSVRIIDGVAILDGRIDTEIIINGVRIRETVEVQIVIVKVNGRWKDERVEFK | 0.13
SEDDEKSQEIMHRFIKYYETGDWKRLYELADPNARSYYNGKERHGMDVIRDLIEKVKNVKLHIRRIESDVQGDKINLHLDVEVDIDGQIMTLHDTVHAEKIDGRWRIRIIFLHVK | 1.36
DEKEELVEYFWEVFLKSLRTGNWHEFVKMFDPDAKSHINGVHSIGRDHIATLILREHEEIRYTEIRERHIEVQGDKIHVHTEVDMFVGDKRIRTERHIHITIVNGRIKSMRVEIR | 0.958
DEDTKLAKEAWRHLMENLHTGNEEIILHLVDPNAKFRYGEFEHHGRESLKWFRKRYDHIEVTHVEFHHVQVQGDKLIYHGTLEMSFEQGNKHEHWEYNVLLISRKINGRWIVKSIEVN | 0.953
SEEQEEMRKLLKEFWHHTQTGDEDSFKRLADPDVKLRIDGKNYHGREATEFFTRRFDVIHDLRIHHMTIQGDWVRLEGTMHIEVGNYHDTKDVRIIILKYNGRWVNHEVRIH | 0.741
GEEHELTERAIEHFVDIWKTGDEDSLEENIDPHARIDFNGQQLHGREEMYRFMHKVNRQIKGIRLSFKYIDLRIYGDKVIVHNDGVVRVGDKVHDEQTKLEMRKVDGRWLFKSVTVFVL | 1.05
DEHDHILKRLSEELLHMMETGDEDALAELFDPHARMEYNGQEIHGRRDVERIRREILEKLGVDKIHTEVKEERFVGEKLEVHTHLHVDGVHFTVRIHWVKFNGRWVIRTLHIE | 1.38
DEEEHIMRRVTDILVHYIATGDEDSLTRLLDPHARIIIDGRTIHGREWIQHHLRRIDHIHMHSYHIHDIRIQGDKVYADQEIDVEHRVNGVTIRKRFHVNIITVKVNGQWYLHSINNQ | 1.45
DEDERNVRDVAYLLLHALWTGDEDMLRHLIDPDVRFHIDGRHHHGWLRVLEMFREIRIHDFRMHDEKFRIIGDKAEARFDGESIVVIDGKEVDRRVEERYIIVKVNGQWRLKMIEVHLR | 1.55
DHDKEYADRSIELWLKSHETGDEELVMRLADPHARVYVGEYEDHGREMVMIMLRVLGVDHYSVRSWHVQGDKVSITGELQVGDKKFRSHLTVRKVNGRWLLSEVRIG | 1.16
DEERRHFEHFFHLWEQIMVTGDEDMARMLADPNVRIQVGDKKYHGREHFAELIKHLRVERIRIHTFRLYDGRIELIIHVHGNVNGQRDEFETRSHTIKVDGVWVIHSFHID | 1.6
DEEERQVLLLAKILIHLYYTGDEESFRKLLDPHVRIIWNGRDFVGRENWYELLHRVLRHWRIHHIDIHDFDVQGNKARFHTQIVVDVNGKHIRSHTEVIYVVVNGRVDEIEVIIR | 2.37
SEREKESERLWRLSAEVMETGDESMSLKEFDPHYRVLFDGQDFHGREQWKEFLERFDHEALKRFHEKRDDRQGDKAIHEGDLDLVLNYGDKQLRTRRDVIFYITKVNGKWMIKIVEFV | 0.084
DDNEETVERTFKYFIDSLRTGNEEDMYEMADPNVKIEIGDKRLHGREKFRDHMHELSRRADHIQVHLRIHDIQGEFLHLDVELILDVNGKELRIKVHFVAFKFNGRWRLRSMRQT | 1.04
DEEHKHLREILRLMIEWLRTGDWEKIERNADPTTKMDYGEFKTHGREEYYRALMILIRHLGVDHITLHDFTFIDGKIYLDLIIHVNGQHERVTLEMHFVDGVIKRHHVREK | 0.566
SEDHEAFDSMIQSWLDVYLTGDEDIMLELFDPRMRVDINGKDIHGMHHYTDLLHKVRRERGFEEHLRIEDSKVINGKAEFHTHVHIRQGDKNMEFEVTIVVLKINGKWWIKHIEIT | 0.922
VEDLREYIRIAEELVKSWITGDWDRLRKLVDPNVRLDVDGVENIGRDHVHRALEEHEKHIRLKDHRIEHIDAVDGKSTMHTRSHFHINGVEHEVNVHMEFVIVNGRVTEMRISIR | 1.02

Sequence | protease stability score
SEDDHMAELASRLVHERVKTGDPRVVDELLDPNVRLEYGDKEWHGREEFRKFLRHLRLHDVHIRSYEIQGDKVYIDGRVDGEVNGKRSLLETHIYAKKIDGRWLETSVVMK | 0.561
DEEDERNLKLFHLAMLASITGNEELIEQLVDPDVRIEINGRDKHGRETLIKLLERFDHFQWHRFHWRRLEIQGNKIIMLLEVHGTIHIGEFKIKLQTDTISIVTKIDGRWTIKELYIK | 1.62
HELLEHVKKIIEMWNKLLHTGDEETLNKLLDPRVRIHVNGRELIGREAVETELREIRFEITYTHVKEVDVVGDKVHVNTLLDGEFRIGNFVIRTRTDARLHLLKVDGKWLLESLHVT | 1.24
SEDDERQRWIIEELVKTERTGDEHRRMELADPDYRLEIGDKEVHGMEEASRILHDELFNLGINHMHIKEWRVQGDKVHLEGLMVVGDKTHRVRIHYVIVNGRVKTLKWRID | 1.33
DDLEHEAHEFVRRFMEDFDTGNEKSFEDLADPNVRLDFDGKRQHGRETVSEWLYRWLYDLGIKHTTLRHVETINGRVHSTAELKVGDKHYDLHVEFKKVDGKWVFQRVYFR | 1.11
DEEEHDVEVAFREYVKSTKTGDEDTLRHLADPHVKIWVDGRDFHGREVYYRLEKKIMEEWRFHDMHVEHVLVQGNKMTLHTRIDGEFDGKKVNLEVIIISVKVDGQWMIHSLEHR | 2.22
DEMDEISKEAWRMLKEITRTGDEDLMHKNVDPNARVIYGDKVVHGRERVTKILVEMRIDHEEHRDSRVVGNKVELDVHFDGEFDGRRFRTDVHWVIVKINGQWRIKEHVIL | 1.22
HEEEKHAHEVLQLFIESVETGDWRMWEHLADPHVRLEVNGQEVIGREDALRWLEELLKKLGVDHFKLELEDHHIQGEKVRSITRSHIRVNGVRIDRTTHVIIVVINGRLKHIEVRER | 0.204
DEDEEMSRIALNLFIHAMDTGDEHTLTHLMDPNVQLQINGREIIGREEVIRFVRELGVKHVKSHRLRDMELQGDKIIIDAEVEESQGDKEHHFRHTIVFRKVNGRWIIQSIKIK | 2.13
DEEEEFYEKMFRLWFELLLTGDESTLIKLLDPHVRIDFNGRELIGWFYLSHFMREFRHRFDHVEIIIRRVTVIDGVARSDLELRVNINGKDHTVKTEVHIRVVNGRMKSLEFHIK | 0.965
DHEDKLHEEAFRRWLHVFKTGNEDLIRRLVDPHVKLEVDGQDFHGREELLRFLIERIRNLGIKVSDVKVKHVDIQGDKLDIDVRFIVEFNGRRTEINEWLIMEKIDGRWVVQSIHIR | 1.3
TDEKRDLDDWLHLLLHAIRTGDFRIEEKLADPNARLEFNGKEFIGMHHILNFLIEWRLHHMDIKHIEKQGDYLHIDSRLDVDFDGQRTILETHLVSLKINGRWILHSMSIG | 1.28
DEEDRFAEEYIRLLHEIIKTGDWHQLKRMVDPNARWDVNGVDVIGMEEYVRVWKDEIDRFKGLRLHPRIRHVDFINGRIHVHSEKKVEYGDKEETFETKRHIFLFNGVDTHFSIRID | 0.278
DEETELTERAIEESKHNMETGDEDRLIELIDPNVKVEIGDKTFHGWEELMRWWHELGIKHVHLEFHDVKHFNGRIEVDGRLHIDVNGRTILLRVELYFQKINGQWFKESIHIK | 1.67
DEQEKFSKEMARLFIELRLTGDWETFTHLADPDVLWEIHVDGQSERNIGWESVRHAMEKERHELRIEHIHIRDVKIQGNKIHINTEVVGQFNGRRFIVDSRIHIHIVNGRIKDVTIEIE | 1.16
DEEKEDFHHAVELVLRVIKTGDEHTARELMDPRVRIDIDGQDFHGWQHIVHFVKHWRIERYSLKYVEYIDGRIHNTVLLDITVDGQRRNLEVYIIFLKYNGRWILTEVILR | 1.84
DEKTEHERELSERLLKAILTGDEDLFKELADPNVRIISEIDGRKDESHGWTAWHRIMQSLGFNVMRIDHHELINGVQYVESTLDINGVRRKTHLIIRIINGKVKEVRFSID | 1.88
DEREEESERWVRLLLHYLLTGDFRRIEELVDPNARSIIGDKRHHGREIVVEWMTRYKNARVEVKDFHIQGDKLQLHVEVQIDGRTFKLDIELYKVNGKWLLRTLHVEEL | 1.44
DEEDELAEHLLHIIIDALETGDWKFFADYFDPHTRLEIEIGDKRFQLHGRESIRKRWEEIWRELGVKHREIKSTRLIGDKIEMDVTINVGDKRIRHHIVIVIVNGRMKKEMVIVR | 1.19
SELIRASETMMKAIADSEETGDWRLLRELFDPHVRIEIGDKKYHGWKYLKHFMEELRIESRTELEHVDTFDGKVRVEGTLTTDLRVNGQEHTINLDIRSIIVKIDGRWIIHKVKIH | 1.14
SDDEREDRIAIDILLRSTETGDEDTVRHMFDPNARVDVDGREIHGRDASKLFMERVDHIHEVKIDDIKTINGRVHNEGTWYGEYGDKKSELKVHWVLLKIDGRWLIKEVRIR | 1.57
SHVEEEAEHFWEELVRAYKTGDENLLKRLADPNVKVDINGRELIGREEFARVVSEERRQMRSHVELHDIRKDGDKMHINTILRIHIGDKEVSRTTHLHSIKVDGRWRLETWHIV | 1.06
DEERDETRELLRRLQELLRTGDEEEIRKLADPHVRSDVNGREYHGRDWATHLIMRFDHLDIERIRIFDGRIETDFRVEIGDKTFQTRMHVRKIDGRWNIKEIKII | 1.55
DDESEKAEHIYELLTRLMLTGDEQIIHKLMDPNVRLDVDGQEYHGREEVVSAWRRWLKEMGVDHLELKSVRLIFFNGQLHIHINGEVRFNGRKHRVHIRLVLRKIDGVWHLEELEVEYK | 1.92
SEEDEFVHEMVEILLKMFLTGDFQHFKRLADPHVMFVFNGKRFHGRHWVLDELIRFPNIKFELTHYEFDDINGVVHINIFGQRDVDGKNENVELHFVVEKVDGRWKIHRIIFRLR | 1.11
